Publication PMC10564760, “A human monoclonal antibody binds within the poliovirus receptor-binding site to neutralize all three serotypes” (Nature Communications, 2023)

Assays:
Conditions in all cases: both partners purified
[1] = target: T1, Sabin poliovirus type 1 capsid (live) (Poliovirus type 1, Sabin (live), UniProt P03301, strain, biotin (EZ-Link Micro Sulfo-NHS-Biotinylation Kit) | biotin (EZ-Link Micro Sulfo-NHS-Biotinylation Kit) | biotin (EZ-Link Micro Sulfo-NHS-Biotinylation Kit)); assay: BLI
T1 construct: also called SPV1; Sabin serotype 1; copies: + + +

[2] = target: T2, Sabin inactivated poliovirus type 2 capsid (Poliovirus type 2, Sabin strain …, strain); assay: BLI
T2 construct: also called SIPV2; ISPV2; copies: + + +

[3] = target: T3, wild-type poliovirus type 2 capsid (Poliovirus type 2, wild type; strain …, strain); assay: cryo-EM structure
T3 construct: also called WTPV2; wild-type PV2; copies: + + +
T3 chain 1: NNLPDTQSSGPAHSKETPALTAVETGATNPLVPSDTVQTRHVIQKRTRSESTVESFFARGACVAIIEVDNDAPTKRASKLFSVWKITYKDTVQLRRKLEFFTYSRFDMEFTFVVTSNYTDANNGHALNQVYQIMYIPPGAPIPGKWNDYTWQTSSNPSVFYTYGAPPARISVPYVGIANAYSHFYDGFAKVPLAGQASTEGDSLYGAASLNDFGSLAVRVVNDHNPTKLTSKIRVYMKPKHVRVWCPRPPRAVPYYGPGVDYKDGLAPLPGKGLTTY
T3 chain 2: not shown
T3 chain 3: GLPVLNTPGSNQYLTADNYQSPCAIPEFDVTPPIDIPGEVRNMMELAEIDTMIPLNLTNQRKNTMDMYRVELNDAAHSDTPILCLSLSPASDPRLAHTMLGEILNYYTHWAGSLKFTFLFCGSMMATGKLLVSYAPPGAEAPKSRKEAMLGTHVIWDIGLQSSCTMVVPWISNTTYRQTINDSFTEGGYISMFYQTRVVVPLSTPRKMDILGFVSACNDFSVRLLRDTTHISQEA

[4] = target: T4, wild-type poliovirus serotype 2 capsid (Poliovirus type 2, wild type; strain …, strain); assay: cryo-EM structure
T4 construct: also called WTPV2; wild-type PV2; copies: + + +
T4 chain 1: T3 chain 1
T4 chain 2: not shown
T4 chain 3: T3 chain 3

B1: 9H2 fragment antigen-binding (Fab) (Fab, V domains shown)
VH: LVQSGAELKKPGASVKFSCQASGFTFTTYDIHWVRQAPGQGLEWMGMISPSRDSTIYAQKFQGRVTMTSDTSTSTVYMELTSLRSEDTALYYCATASRPSAWVFRSLYTYYYMDVWGTGTTVTVSS
VL: QSALTQPASVSGSPGQSITISCTGTITDIGYYNYVSWYQQHPGKAPKLIIFDVTNRPSGVSDRFSGSKSGNTASLTISGLQAEDEGDYYCFSHRSNNIRVFGGGTKLTVL
notes: also called 9H2 Fab; Fab 9H2
[1]
  Kd: 936 µM
  koff: 1.05 s⁻¹
  kon: 1120 M⁻¹ s⁻¹
[2]
  Kd: 2.1 µM
  koff: 0.483 s⁻¹
  kon: 230000 M⁻¹ s⁻¹
[3]
  binding result: binds

B2: 9H2 fragment antigen-binding (Fab) (Fab, V domains shown)
VH: B1 VH
VL: B1 VL
notes: also called 9H2 Fab; Fab 9H2
[4]
  binding result: binds
